Literature values in US20180071407A9, “SYSTEMS AND METHODS FOR INTRA-TARGET MICRODOSING (ITM)” (priority 2013, published 2018).

Details: known value used to choose sampling time points; cited from earlier work

Question: For insulin, which half-life of insulin is on record?
Answer: 4 to 6 min
